The record followed here is patent US20130273089A1 (TOLERA THERAPEUTICS, published 2013).

For assay [1], the target named is human αβ T cell receptor (αβ TCR) on T cells (human). Kind of assay: cell-based or functional assay.
The target in assay [2] is T1, CD14 on cells expressing CD14 (monocyte lineage/NK cells) (UniProt P08571 20-345, limits assumed).
T1 construct: whole, on cells
T1 sequence (looked up): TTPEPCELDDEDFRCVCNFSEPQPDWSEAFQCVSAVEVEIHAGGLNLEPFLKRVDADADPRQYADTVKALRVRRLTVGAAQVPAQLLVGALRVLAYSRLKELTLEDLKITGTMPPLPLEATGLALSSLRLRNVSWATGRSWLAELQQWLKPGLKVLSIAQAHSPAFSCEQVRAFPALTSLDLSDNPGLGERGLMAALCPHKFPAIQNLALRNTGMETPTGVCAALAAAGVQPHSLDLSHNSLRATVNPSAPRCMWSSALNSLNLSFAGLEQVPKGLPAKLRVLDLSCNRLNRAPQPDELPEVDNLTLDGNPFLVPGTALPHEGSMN
The assay can be described thus: flow cytometry on PBMC from 6 donors. (In general: Flow cytometry measures light scatter and fluorescence of single cells or particles in a stream.)

B1: TOL101 murine anti-αβ TCR monoclonal IgM antibody produced by the hybridoma TOL101 MCB (ATCC PTA-13293) (antibody)
heavy: QVQLQQSGAELARPGASVKMSCKASGYTFTSYTMHWVKQRPGQGLEWIGYINPSSGYTNYNQKFKDKATLTADKSSSTAYMQLSSLTSEDSAVYYCARWRDAYYAMDYWGQGTSVTVSSESQSFPNVFPLVSCESPLSDKNLVAMGCLARDFLPSTISFTWNYQNNTEVIQGIRTFPTLRTGGKYLATSQVLLSPKSILEGSDEYLVCKIHYGGKNRDLHVPIPAVAEMNPNVNVFVPPRDGFSGPAPRKSKLICEATNFTPKPITVSWLKDGKLVESGFTTDPVTIENKGSTPQTYKVISTLTISEIDWLNLNVYTCRVDHRGLTFLKNVSSTCAASPSTDILTFTIPPSFADIFLSKSANLTCLVSNLATYETLNISWASQSGEPLETKIKIMESHPNGTFSAKGVASVCVEDWNNRKEFVCTVTHRDLPSPQKKFISKPNEVHKHPPAVYLLPPAREQLNLRESATVTCLVKGFSPADISVQWLQRGQLLPQEKYVTSAPMPEPGAPGFYFTHSILTVTEEEWNSGETYTCVVGHEALPHLVTERTVDKSTGKPTLYNVSLIMSDTGGTCY
light: QIVLTQSPAIMSASPGEKVTMTCSASSSVSYMHWYQQKSGTSPKRWIYDTSKLASGVPARFSGSGSGTSYSLTISSMEAEDAATYYCQQWSSNPFTFGSGTKLEIKRADAAPTVSIFPPSSEQLTSGGASVVCFLNNFYPKDINVKWKIDGSERQNGVLNSWTDQDSKDSTYSMSSTLTLTKDEYERHNSYTCEATHKTSTSPIVKSFNRNEC
chain: GDDEATILADNKCMCTRVTSRIIPSTEDPNEDIVERNIRIVVPLNNRENISDPTSPLRRNFVYHLSDVCKKCDPVEVELEDQVVTATQSNICNEDDGVPETCYMYDRNKCYTTMVPLRYHGETKMVQAALTPDSCYPD
notes: Murine IgM kappa (IgMκ); It was detected with anti-mouse IgM in flow cytometry; also called TOL101 antibody; TOL101 mAb
B1: the calcium flux in CD4 T cells (Fluo-4) (% of CD4 T cells) in assay [1] turned out to be 15. Also, the binding result in assay [2] is given as “no binding”.
